Laboratory results from publication PMC3280358 (2012).

What was measured:
[1] = biological target: T13 monophosphorylated Rad51 NTD peptide (human, UniProt Q06609, phosphothreonine at T13); experiment: ITC
[2] = biological target: T13/S14 diphosphorylated Rad51 NTD peptide (human, UniProt Q06609, phosphothreonine at T13; phosphoserine at S14); experiment: ITC

| Binder | Kd [1] [µM] | Kd [2] [µM] |
| --- | --- | --- |
| Nbs1 (1-382) K160M (domain or fragment) MWKLLPAAGPAGGEPYRLLTGVEYVVGRKNCAILIENDQSISRNHAVLTANFSVTNLSQTDEIPVLTLKDNSKYGTFVNEEKMQNGFSRTLKSGDGITFGVFGSKFRIEYEPLVACSSCLDVSGKTALNQAILQLGGFTVNNWTEECTHLVMVSVKVTIMTICALICGRPIVKPEYFTEFLKAVESKKQPPQIESFYPPLDEPSIGSKNVDLSGRQERKQIFKGKTFIFLNAKQHKKLSSAVVFGGGEARLITEENEEEHNFFLAPGTCVVDTGITNSQTLIPDCQKKWIQSIMDMLQRQGLRPIPEAEIGLAVIFMTTKNYCDPQGHPSTGLKTTTPGPSLSQGVSVDEKLMPSAPVNTTTYVADTESEQADTWDLSERPK | 24 | – |
| recombinant fragment of Nbs1 (residues 1-382), wild type (domain or fragment) MWKLLPAAGPAGGEPYRLLTGVEYVVGRKNCAILIENDQSISRNHAVLTANFSVTNLSQTDEIPVLTLKDNSKYGTFVNEEKMQNGFSRTLKSGDGITFGVFGSKFRIEYEPLVACSSCLDVSGKTALNQAILQLGGFTVNNWTEECTHLVMVSVKVTIKTICALICGRPIVKPEYFTEFLKAVESKKQPPQIESFYPPLDEPSIGSKNVDLSGRQERKQIFKGKTFIFLNAKQHKKLSSAVVFGGGEARLITEENEEEHNFFLAPGTCVVDTGITNSQTLIPDCQKKWIQSIMDMLQRQGLRPIPEAEIGLAVIFMTTKNYCDPQGHPSTGLKTTTPGPSLSQGVSVDEKLMPSAPVNTTTYVADTESEQADTWDLSERPK | – | 57 |
